Legend:
[1] = target: T1, human CCR2 (CC-Chemokine Receptor 2) (human, UniProt P41597 1-374); test: flow cytometry on CHO-huCCR2 cells, PE anti-human IgG
T1 construct: whole, on cells; also called huCCR2; CHO-huCCR2
Method: The data in FIG. 1 illustrates in vitro data for cellular binding EC₅₀ measurements. […] In this example, CHO-CCR2 cells were lifted from culture flasks using non-enzymatic Cell Dissociation Buffer—PBS based (Life Technologies #13151-014). Cells were resuspended in FACS Buffer (2% Fetal Bovine Serum in PBS) at 1×10⁶ cells/ml and 100 μl (1×10⁵ cells) were aliquoted into the wells of a 96-well plate. Plated cells were spun down and the supernatant discarded. Cells were resuspended in 50 μl FACS Buffer containing the indicated concentrations of CCR2 D1 IgG in triplicate (FIG. 1). Plates were incubated for 1 hr at 4° C., then washed 1× with FACS Buffer. Cells were resuspended in 50 μl goat anti-human IgG (γ-chain specific)-PE conjugated secondary antibody (Southern Biotech #2040-09) diluted 1:500 in FACS Buffer. Cells were further incubated for 30 min at 4° C. and then washed 1× with FACS Buffer. The cells were resuspended in a final volume of 25 μl FACS Buffer and analyzed using the Intellicyt Flow Cytometer. Median fluorescence in the FL-2H channel was determined using FlowJo software and EC₅₀ value was determined by plotting the data in GraphPad Prism and analyzing using a variable slope non-linear regression.

murine CCR2 [2] = target: T2, murine CCR2 (murine, UniProt P51683 1-373); test: flow cytometry on WEHI 274.1 cells (murine CCR2), PE anti-human IgG
T2 construct: whole, on cells; also called mouse CCR2; murine CCR2-expressing cells (WEHI 274.1)
T2 sequence (P51683 whole entry): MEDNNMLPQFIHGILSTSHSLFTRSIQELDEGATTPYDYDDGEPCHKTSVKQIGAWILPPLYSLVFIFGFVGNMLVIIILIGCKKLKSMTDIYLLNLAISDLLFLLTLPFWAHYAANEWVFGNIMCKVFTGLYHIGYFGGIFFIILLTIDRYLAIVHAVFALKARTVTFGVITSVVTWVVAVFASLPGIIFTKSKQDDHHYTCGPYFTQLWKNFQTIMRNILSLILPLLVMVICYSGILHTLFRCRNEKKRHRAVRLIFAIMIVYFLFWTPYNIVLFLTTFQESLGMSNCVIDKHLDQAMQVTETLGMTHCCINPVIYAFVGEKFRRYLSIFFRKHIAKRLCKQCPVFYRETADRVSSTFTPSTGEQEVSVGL
Method: In this example, WEHI 274.1 cells were resuspended in FACS Buffer (2% Fetal Bovine Serum in PBS) at 1×10⁶ cells and […] of cell suspension was aliquoted into the wells of a 96-well plate. Plated cells were spun down and the supernatant discarded. Cells were resuspended in 30 μl FACS Buffer containing serially diluted anti-CCR2 IgGs in triplicate. Plates were incubated for 1 hr at 4° C., then washed 2× with FACS Buffer. Cells were resuspended in 50 μl goat anti-human IgG (γ-chain specific)-PE conjugated secondary antibody (Southern Biotech #2040-09) diluted 1:500 in FACS Buffer, incubated for 30 min at 4° C. and then washed 1× with FACS Buffer. The cells were resuspended in a final volume of 30 μl FACS Buffer and analyzed using the Intellicyt Flow Cytometer. Median fluorescence in the FL-2H channel was determined using FlowJo software and EC₅₀ values were determined by plotting the data in GraphPad Prism and analyzed using a variable slope non-linear regression.

murine CCR2 [3] = target: T2, murine CCR2; test: cell-based or functional assay
[4] = target: T1, human CCR2 (CC-Chemokine Receptor 2); test: cell-based or functional assay
[5] = target: T1, human CCR2 (CC-Chemokine Receptor 2); test: cell-based or functional assay; remark: listed apart in the source
[6] = target: T1, human CCR2 (CC-Chemokine Receptor 2); test: cell-based or functional assay; remark: listed apart in the source

T1 sequence (P41597 whole entry): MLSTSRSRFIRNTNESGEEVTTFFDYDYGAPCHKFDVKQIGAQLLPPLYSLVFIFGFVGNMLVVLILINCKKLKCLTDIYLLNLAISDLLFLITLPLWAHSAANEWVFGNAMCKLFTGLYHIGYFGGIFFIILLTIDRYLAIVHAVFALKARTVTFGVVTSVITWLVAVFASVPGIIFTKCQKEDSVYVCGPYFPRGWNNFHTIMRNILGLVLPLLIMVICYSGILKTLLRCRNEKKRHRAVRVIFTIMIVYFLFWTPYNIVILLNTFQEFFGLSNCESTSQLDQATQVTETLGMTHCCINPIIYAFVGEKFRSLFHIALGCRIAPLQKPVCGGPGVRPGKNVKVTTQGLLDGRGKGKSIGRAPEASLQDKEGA

B1: 43D12 (antibody, V domains shown)
VH: EVQLVESGGGLVQPGGSLRLSCVASGFTFSDYWMSWVRQAPGKGLEWVANIKKDGSVNYYVDSVKGRFTISRDNAKNSLYLQMNSLRAEDTAVYYCTRFDYWGQGTLVTVSS
VL: QAGLTQPPSVSKGLRQTATLTCTGNSNNVGNQGAAWLQQHQGHPPKLLFYRNNNRASGISERLSASRSGNTASLTITGLQPEDEADYYCLTWDSSLSVVVFGGGTKLTVL
notes: tested as IgG; 27/28 '43D12'; the text calls the same pair '43G12'; also called 43G12
[1]
  EC50: 1.8 nM

B2: 42G7 (antibody, V domains shown)
VH: QVQLVQSGAEVKKPGASVKVSCKASGYTFSSYYMHWVRQAPGQGLEWMGIINPSGGNTSYAQKFQGRVTMTRDTSTSTVYMELSSLRSEDTAVYYCARGGYQLPHGRARAFDMWGQGTMVTVSS
VL: AIRMTQSPLSLPVTLGQPASISCTSSQSLVYRDGTTYLNWFQQRPGQSPRRLIYKVSNRDSGVPDRFTGSGSGTTFTLTISRVEAEDVGIYYCMQGTHWPLTFGQGTKVEI
notes: tested as IgG
[1]
  EC50: 15 nM

B3: 54A9 (antibody, V domains shown)
VH: VQLVESGAEVKKPGASVKVSCKASGYTFSSHYMHWVRQAPGQGLEWMGIINPSGGSTIYAQKFQGRVTINADESTSTAYMELSSLGSDDTAVYYCARAAGGAVAGHGARFDYWGQGTLVTVSS
VL: LPVLTQPASVSGSPGQSITISCTGTSSDVGGYNYVSWYQQHPGKAPKLMIYDVSNRPSGVSNRFSGSKSGNTASLTISGLQAEDEADYYCSSYRRSSTLVFGGGTKLTVL
notes: tested as IgG
[1]
  EC50: 0.53 nM

B4: D1-1/LO (antibody, V domains shown)
VH: QVQLVQSGAEVKKPGASVKVSCKASGYTFTGYYMHWVRQAPGQGLEWMGWINPNSGVTKYAQKFQGRVTMTRDTSTSTVYMELSSLRSEDTAVYYCATGGFGYWGEGTLVTVSS
VL: LPVLTQPPSVSKGLRQTATLTCTGNSNNVGNQGAAWLQQHQGQPPKLLSYRNHNRPSGVSERFSPSRSGDTSSLTITGLQPEDEADYYCLAWDSSLRAFVFGTGTKLTVL
notes: The suffix '/LO' is not explained
Murine CCR2 [2]
  EC50: 4.8 nM
[1]
  EC50: 0.13 nM
Murine CCR2 [3]
  IC50 in chemotaxis assay using mouse WEHI cells, ligand mouse MCP-1 (0.7 nM): 0.035 nM
[4]
  IC50 in chemotaxis assay using human THP-1 cells, ligand MCP-1 (3 nM): 0.13 nM
  IC50 in chemotaxis assay using human THP-1 cells, ligand MCP-3 (1.1 nM): 0.1 nM

B5: 1B2 (antibody, human IgG1, V domains shown)
VH: EVQLVESGAEVKKPGASVKVSCKASGYTFTGYYMNWVRQAPGQGLEWMGWINPNSGGTKYAQKFQGRVTMTSDTSINTAYMELSRLRYDDTAVYYCATGGFQHWGQGTLVTVSS
VL: LPVLTQPPSVSKGLRQTATLTCTGNSNNVGNQGAAWLQQHQGQPPKLLSYRNHNRPSGVSERFSPSRSGDTSSLTITGLQPEDEADYYCLAWDSSLRAFVFGTGTKLTVL
[1]
  EC50: 0.36 nM
[5]
  IC50 on MCP-1 (3 nM) induced THP-1 cell migration: 0.087 nM
  IC50 on MCP-5 (3 nM) induced THP-1 cell migration: 0.197 nM
[6]
  IC50 in calcium flux assay using human THP-1 cells, ligand MCP-1 (2.5 nM): 0.92 nM
  IC50 in calcium flux assay using human THP-1 cells, ligand MCP-3 (22 nM): 0.29 nM
  IC50 in calcium flux assay using human THP-1 cells, ligand MCP-5 (0.43 nM): 0.89 nM
[4]
  IC50 in chemotaxis assay using human THP-1 cells, ligand MCP-1 (3 nM): 0.09 nM
  IC50 in chemotaxis assay using human THP-1 cells, ligand MCP-2 (6.7 nM): 0.06 nM
  IC50 in chemotaxis assay using human THP-1 cells, ligand MCP-3 (1.1 nM): 0.04 nM
  IC50 in chemotaxis assay using human THP-1 cells, ligand MCP-4 (35 nM): 0.05 nM
  IC50 in chemotaxis assay using human THP-1 cells, ligand MCP-5 (0.65 nM): 0.2 nM

B6: 1B11 (antibody, V domains shown)
VH: QVQLVESGGGVVQPGRSLRLSCAASGFTFSSYAMHWVRQAPGKGLEWVAVISYDGSNKYYADSVKGRFTISRDNSKNTLYLQMNSLKAEDTAVYYCATAAAGPFDYWGQGTTVTVSS
VL: LPVLTQPPSVSKGLRQTATLTCTGNSNNVGNQGAAWLQQHQGQPPKLLSYRNHNRPSGVSERFSPSRSGDTSSLTITGLQPEDEADYYCLAWDSSLRAFVFGTGTKLTVL
notes: tested as IgG
[1]
  EC50: 2.3 nM

B7: D1-7/LO (antibody, V domains shown)
VH: QVQLVQSGAEVKKPGASVKVSCKASGYTFTGYYMHWVRQAPGQGLEWMGWINPNSGVTKYAQKFQGRVTMTRDTSTSTVYMELSSLRSEDTAVYYCATGSGGGTMDVWGEGTLVTVSS
VL: LPVLTQPPSVSKGLRQTATLTCTGNSNNVGNQGAAWLQQHQGQPPKLLSYRNHNRPSGVSERFSPSRSGDTSSLTITGLQPEDEADYYCLAWDSSLRAFVFGTGTKLTVL
notes: tested as IgG. '/LO' not explained
[1]
  EC50: 0.08 nM

B8: 1G11 (antibody, human IgG1, V domains shown)
VH: EVQLVESGAEVKKPGASVKVSCKASGYIFTGYYIHWVRQAPGQGLEWMGWINPNNGVTKYAEKFQGRVTMTRDTSITTAYMDLSRLRSDDTAIYYCATGGFEYWGQGTLVTVSS
VL: LPVLTQPPSVSKGLRQTATLTCTGNSNNVGNQGAAWLQQHQGQPPKLLSYRNHNRPSGVSERFSPSRSGDTSSLTITGLQPEDEADYYCLAWDSSLRAFVFGTGTKLTVL
[1]
  EC50: 0.34 nM
[5]
  IC50 on MCP-1 (3 nM) induced THP-1 cell migration: 0.079 nM
  IC50 on MCP-5 (6 ng/ml) induced THP-1 cell migration: 0.261 nM
[6]
  IC50 in calcium flux assay using human THP-1 cells, ligand MCP-1 (2.5 nM): 0.75 nM
  IC50 in calcium flux assay using human THP-1 cells, ligand MCP-3 (22 nM): 0.25 nM
  IC50 in calcium flux assay using human THP-1 cells, ligand MCP-5 (0.43 nM): 0.56 nM
[4]
  IC50 in chemotaxis assay using human THP-1 cells, ligand MCP-1 (3 nM): 0.08 nM
  IC50 in chemotaxis assay using human THP-1 cells, ligand MCP-2 (6.7 nM): 0.16 nM
  IC50 in chemotaxis assay using human THP-1 cells, ligand MCP-3 (1.1 nM): 0.07 nM
  IC50 in chemotaxis assay using human THP-1 cells, ligand MCP-4 (35 nM): 0.06 nM
  IC50 in chemotaxis assay using human THP-1 cells, ligand MCP-5 (0.65 nM): 0.26 nM

B9: 1H5 (antibody, V domains shown)
VH: EVQLVQSGAEVKKPGASVKVSCKASGYTFTSYYMHWVRQAPGQGLEWMGIINPSGGSTSYAHKFQGRVTMTRDTSTSTVYMELSSLRSEDTAVYYCARGGHVLRFLEWLGLEGPFDYWGQGTLVTVSS
VL: LPVLTQPPSVSKGLRQTATLTCTGNSNNVGNQGAAWLQQHQGQPPKLLSYRNHNRPSGVSERFSPSRSGDTSSLTITGLQPEDEADYYCLAWDSSLRAFVFGTGTKLTVL
notes: tested as IgG
[1]
  EC50: 1.3 nM
[5]
  IC50 on MCP-1 (3 nM) induced THP-1 cell migration: 0.109 nM
  IC50 on MCP-2 (30 ng/ml) induced THP-1 cell migration: 1.9 nM
  IC50 on MCP-3 (6 ng/ml) induced THP-1 cell migration: 2.6 nM
  IC50 on MCP-4 (200 ng/ml) induced THP-1 cell migration: 1.4 nM
  IC50 on MCP-5 (6 ng/ml) induced THP-1 cell migration: 0.349 nM

B10: D1-2/LO (antibody, V domains shown)
VH: QVQLVQSGAEVKKPGASVKVSCKASGYTFTGYHMHWVRQAPGQGLEWMGIINPSGGSTSYAQKFQGRVTMTRDTSTSTVYMELSSLRSEDTAVYYCATGGFGYWGEGTLVTVSS
VL: LPVLTQPPSVSKGLRQTATLTCTGNSNNVGNQGAAWLQQHQGQPPKLLSYRNHNRPSGVSERFSPSRSGDTSSLTITGLQPEDEADYYCLAWDSSLRAFVFGTGTKLTVL
notes: as for B7
Murine CCR2 [2]
  EC50: 81 nM
[1]
  EC50: 16 nM

B11: D1-6/LO (antibody, V domains shown)
VH: QVQLVQSGAEVKKPGASVKVSCKASGYTFTGYHMHWVRQAPGQGLEWMGIINPSSGSTKYAQKFQGRVTMTRDTSTSTVYMELSSLRSEDTAVYYCATGGFGYWGEGTLVTVSS
VL: LPVLTQPPSVSKGLRQTATLTCTGNSNNVGNQGAAWLQQHQGQPPKLLSYRNHNRPSGVSERFSPSRSGDTSSLTITGLQPEDEADYYCLAWDSSLRAFVFGTGTKLTVL
notes: as for B7
[1]
  EC50: 3.5 nM

B12: 1A2 (antibody, V domains shown)
VH: EVQLVQSGAEVKKPGASVKVSCKASGYTFTSYYMHWVRQAPGQGLEWMGIINPSGGSTSYAQKFQGRVTMTRDTSTSTVYMELSSLRSEDTAVYYCATGSGGGTMDVWGQGTTVTVSS
VL: LPVLTQPPSVSKGLRQTATLTCTGNSNNVGNQGAAWLQQHQGQPPKLLSYRNHNRPSGVSERFSPSRSGDTSSLTITGLQPEDEADYYCLAWDSSLRAFVFGTGTKLTVL
notes: tested as IgG
[1]
  EC50: 2.9 nM

B13: D1-4/LO (antibody, V domains shown)
VH: QVQLVQSGAEVKKPGASVKVSCKASGYTFTGYYMHWVRQAPGQGLEWMGIINPSGGSTSYAQKFQGRVTMTRDTSTSTVYMELSSLRSEDTAVYYCATGGFGYWGEGTLVTVSS
VL: LPVLTQPPSVSKGLRQTATLTCTGNSNNVGNQGAAWLQQHQGQPPKLLSYRNHNRPSGVSERFSPSRSGDTSSLTITGLQPEDEADYYCLAWDSSLRAFVFGTGTKLTVL
notes: as for B7
[1]
  EC50: 1.6 nM
